Biological target: snx9_human SNX9 (UniProt Q9Y5X1)
Sequence (Q9Y5X1 whole entry): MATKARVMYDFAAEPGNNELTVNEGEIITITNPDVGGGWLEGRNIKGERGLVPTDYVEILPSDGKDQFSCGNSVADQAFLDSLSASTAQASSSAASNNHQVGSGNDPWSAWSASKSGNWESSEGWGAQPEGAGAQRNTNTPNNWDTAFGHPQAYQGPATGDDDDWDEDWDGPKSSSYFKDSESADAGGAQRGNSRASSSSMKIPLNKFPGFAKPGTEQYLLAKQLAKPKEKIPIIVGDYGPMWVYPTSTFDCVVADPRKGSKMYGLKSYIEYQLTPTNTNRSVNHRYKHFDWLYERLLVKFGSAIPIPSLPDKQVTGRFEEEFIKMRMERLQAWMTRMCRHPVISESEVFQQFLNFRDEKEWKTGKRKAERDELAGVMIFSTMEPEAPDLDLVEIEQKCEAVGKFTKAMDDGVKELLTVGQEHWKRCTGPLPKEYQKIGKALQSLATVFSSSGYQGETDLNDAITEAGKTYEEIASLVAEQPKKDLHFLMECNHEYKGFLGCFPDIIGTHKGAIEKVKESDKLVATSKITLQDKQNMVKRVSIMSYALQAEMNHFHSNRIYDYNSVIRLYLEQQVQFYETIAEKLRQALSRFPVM

Chain of Inositol polyphosphate 5-phosphatase OCRL (Homo sapiens), Q01968 P177A;P178A;P181A (Q01968 whole entry P177A/P178A/P181A): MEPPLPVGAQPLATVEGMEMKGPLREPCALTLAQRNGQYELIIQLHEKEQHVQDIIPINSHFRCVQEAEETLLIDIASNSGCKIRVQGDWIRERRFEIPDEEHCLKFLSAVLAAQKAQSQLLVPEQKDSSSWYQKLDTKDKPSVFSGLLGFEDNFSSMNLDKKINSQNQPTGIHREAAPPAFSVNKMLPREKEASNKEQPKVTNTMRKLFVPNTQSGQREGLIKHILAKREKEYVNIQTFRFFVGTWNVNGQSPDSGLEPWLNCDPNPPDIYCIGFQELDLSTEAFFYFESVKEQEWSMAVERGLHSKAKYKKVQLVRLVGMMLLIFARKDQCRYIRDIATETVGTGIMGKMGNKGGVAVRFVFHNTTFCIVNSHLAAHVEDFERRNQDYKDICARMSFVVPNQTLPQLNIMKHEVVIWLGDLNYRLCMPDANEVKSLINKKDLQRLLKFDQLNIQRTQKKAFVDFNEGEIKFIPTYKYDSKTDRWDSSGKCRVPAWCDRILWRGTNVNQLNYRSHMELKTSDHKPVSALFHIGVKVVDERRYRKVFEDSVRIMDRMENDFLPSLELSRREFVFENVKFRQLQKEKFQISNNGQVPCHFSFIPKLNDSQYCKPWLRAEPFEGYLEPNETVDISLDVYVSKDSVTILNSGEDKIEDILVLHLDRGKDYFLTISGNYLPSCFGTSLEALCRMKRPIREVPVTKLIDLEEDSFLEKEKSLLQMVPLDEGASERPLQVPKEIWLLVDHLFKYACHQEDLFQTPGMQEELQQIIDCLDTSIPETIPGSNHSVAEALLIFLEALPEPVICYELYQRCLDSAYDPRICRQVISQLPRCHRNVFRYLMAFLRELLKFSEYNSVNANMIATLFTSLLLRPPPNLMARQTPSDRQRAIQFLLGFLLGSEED

effect of a mutation on the interaction: disrupting interaction
Substance: Inositol polyphosphate 5-phosphatase OCRL (Homo sapiens), Q01968 P177A;P178A;P181A

— IntAct's records for PubMed 25107275
